Laboratory results as given in patent US20210130428A1 (Novartis, published 2021).

T1: human BMP6 (Bone Morphogenetic Protein 6) (human, UniProt P22004 382-513, limits assumed)
T1 sequence (looked up): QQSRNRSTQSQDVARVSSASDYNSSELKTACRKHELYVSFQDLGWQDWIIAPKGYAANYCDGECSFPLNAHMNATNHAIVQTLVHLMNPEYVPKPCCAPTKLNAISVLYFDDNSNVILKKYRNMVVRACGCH

T2: human BMP7 (Bone Morphogenetic Protein 7) (human, UniProt P18075 293-431)
T2 sequence (looked up): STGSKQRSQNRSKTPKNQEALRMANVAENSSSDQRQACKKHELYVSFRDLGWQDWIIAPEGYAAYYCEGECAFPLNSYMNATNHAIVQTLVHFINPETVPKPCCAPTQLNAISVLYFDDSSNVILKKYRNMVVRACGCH

T3: human BMP5 (Bone Morphogenetic Protein 5) (human, UniProt P22003 317-454, limits assumed)
T3 sequence (looked up): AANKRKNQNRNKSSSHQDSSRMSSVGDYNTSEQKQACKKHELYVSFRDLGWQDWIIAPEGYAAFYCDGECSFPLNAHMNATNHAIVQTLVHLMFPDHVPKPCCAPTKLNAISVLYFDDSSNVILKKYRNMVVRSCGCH

T4: hBaffR (human, UniProt Q96RJ3)
T4 construct: Unrelated control antigen no
T4 sequence (control antigen, looked up): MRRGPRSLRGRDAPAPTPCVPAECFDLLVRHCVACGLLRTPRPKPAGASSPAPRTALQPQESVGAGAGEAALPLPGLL

T5: Mouse BMP6 (mouse, UniProt P20722)
T5 construct: Antigen no
T5 sequence (ligand, looked up): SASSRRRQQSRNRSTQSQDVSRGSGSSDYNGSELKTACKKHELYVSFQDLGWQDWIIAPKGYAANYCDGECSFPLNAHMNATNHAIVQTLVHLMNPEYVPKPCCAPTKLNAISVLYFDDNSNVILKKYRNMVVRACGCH


What was measured:
[1] = target: T1, human BMP6 (Bone Morphogenetic Protein …); assay: cell-based or functional assay
[2] = target: T2, human BMP7 (Bone Morphogenetic Protein …); assay: cell-based or functional assay
[3] = target: T3, human BMP5 (Bone Morphogenetic Protein …); assay: cell-based or functional assay
[4] = target: human BMP2 (Bone Morphogenetic Protein 2) (human, UniProt P12643 283-396); assay: cell-based or functional assay
Chain of human BMP2 (Bone Morphogenetic Protein 2) (P12643 283-396 limits assumed): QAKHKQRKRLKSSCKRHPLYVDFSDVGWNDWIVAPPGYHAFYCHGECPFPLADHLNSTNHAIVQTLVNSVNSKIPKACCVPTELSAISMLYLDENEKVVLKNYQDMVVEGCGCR

[5] = target: T1, human BMP6 (Bone Morphogenetic Protein …); assay: cell-based or functional assay; remark: listed apart in the source
[6] = target: T1, human BMP6 (Bone Morphogenetic Protein …); assay: cell-based or functional assay; remark: listed apart in the source
[7] = target: T1, human BMP6 (Bone Morphogenetic Protein …); assay: method not stated (Table 8, KD(nM) BMP6)
[8] = target: human BMP7 (Bone Morphogenetic Protein 7) (human) (UniProt P18075); assay: ELISA binding assay
[9] = target: human BMP7 (Bone Morphogenetic Protein 7) (human) (UniProt P18075); assay: cell-based or functional assay
[10] = target: T4, hBaffR; assay: ELISA binding assay, fluorescence signal intensity (anti-Fab-AP detection); antibody concentration not given
[11] = target: T6, BSA (bovine, UniProt P02769); assay: as above
T6 construct: Unrelated control antigen no
T6 sequence (P02769 25-607 limits assumed): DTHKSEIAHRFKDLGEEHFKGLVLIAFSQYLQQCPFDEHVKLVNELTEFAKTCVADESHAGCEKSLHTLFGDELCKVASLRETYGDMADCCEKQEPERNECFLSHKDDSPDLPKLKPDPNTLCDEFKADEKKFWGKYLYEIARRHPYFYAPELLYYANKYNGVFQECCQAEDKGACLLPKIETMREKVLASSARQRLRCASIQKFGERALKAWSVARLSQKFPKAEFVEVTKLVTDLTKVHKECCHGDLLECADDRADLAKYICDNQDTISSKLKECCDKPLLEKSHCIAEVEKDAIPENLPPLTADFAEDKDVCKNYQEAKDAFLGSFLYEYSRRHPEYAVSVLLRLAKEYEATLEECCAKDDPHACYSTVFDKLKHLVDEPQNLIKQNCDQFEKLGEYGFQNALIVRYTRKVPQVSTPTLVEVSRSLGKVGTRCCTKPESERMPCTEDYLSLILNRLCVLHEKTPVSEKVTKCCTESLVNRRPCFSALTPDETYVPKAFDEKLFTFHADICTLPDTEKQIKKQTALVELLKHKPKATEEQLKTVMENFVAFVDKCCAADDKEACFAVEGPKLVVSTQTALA

[12] = target: T3, human BMP5 (Bone Morphogenetic Protein …); assay: as above
[13] = target: T5, Mouse BMP6; assay: ELISA binding assay, fluorescence signal intensity (anti-Fab-AP detection); one bar per antigen, antibody concentration not given

IC50, BMP reporter (BRE-luc) activity in Hep3B [1]	selectivity window against BMP6, BMP reporter gene assay [2]	selectivity window against BMP6, BMP reporter gene assay [3]	selectivity window against BMP6, BMP reporter gene assay [4]	IC50(ug/ml) BMP6 reporter [5]	IC50 (read off the curve), BMP reporter gene assay [panel Ab5] [6]	Kd [7]	IC50 (read off the curve), BMP reporter gene assay [panel Ab6] [6]	selectivity, affinity to human BMP6 over affinity to human BMP7 [8]	selectivity window against BMP6, BMP reporter gene assay [9]	IC50 (read off the curve), BMP reporter gene assay [panel Ab7] [6]	binding result [10]	binding result [11]	binding result [12]	binding result [13]	Binder
0.4 nM	≥ 500 fold	≥ 500 fold	≥ 500 fold	0.06 µg/mL	~0.5 nM	0.1 nM	–	–	–	–	–	–	–	–	Antibody 5 (antibody, human IgG1, lambda, V domains shown, also called Ab 5) VH: QVQLVESGGGLVKPGGSLRLSCAASGFTFSSYVVHWVRQAPGKGLEWVGRIKRESSSYTTMYAAPVKGRFTISRDDSKNTLYLQMNSLKTEDTAVYYCARVERSKSGFDNWGQGTLVTVSS VL: QSVLTQPPSVSGAPGQRVTISCTGSSSNIGAGYSVHWYQQLPGTAPKLLIYGQSERPSGVPDRFSGSKSGTSASLAITGLQAEDEADYYCQSWDSSQTLVVFGGGTKLTVLG
0.4 nM	≥ 500 fold	≥ 500 fold	≥ 500 fold	0.08 µg/mL	–	< 0.1 nM	~0.5 nM	–	–	–	–	–	–	–	Antibody 6 (antibody, human IgG1, lambda, V domains shown, also called Ab 6) VH: QVQLVESGGGLVKPGGSLRLSCAASGFTFSSYVVHWVRQAPGKGLEWVGRTRHSDMGYATSYAAPVKGRFTISRDDSKNTLYLQMNSLKTEDTAVYYCARVERSKSGFDNWGQGTLVTVSS VL: QSVLTQPPSVSGAPGQRVTISCTGSSSNIGAGYSVHWYQQLPGTAPKLLIYGQSERPSGVPDRFSGSKSGTSASLAITGLQAEDEADYYCQSWDSSQTLVVFGGGTKLTVLG
0.4 nM	–	≥ 500 fold	≥ 500 fold	0.07 µg/mL	–	0.1 nM	–	> 500 fold	> 500 fold	~0.5 nM	no binding	no binding	no binding	binds	Antibody 7 (antibody, human IgG1, lambda, V domains shown, also called Ab 7; Ab7) VH: QVQLVESGGGLVKPGGSLRLSCAASGFTFSSYVVHWVRQAPGKGLEWVGRIRLETHGYAAEYAASVKGRFTISRDDSKNTLYLQMNSLKTEDTAVYYCARVERSKSGFDNWGQGTLVTVSS VL: QSVLTQPPSVSGAPGQRVTISCTGSSSNIGAGYSVHWYQQLPGTAPKLLIYGQSERPSGVPDRFSGSKSGTSASLAITGLQAEDEADYYCQSWDSSQTLVVFGGGTKLTVLG
